Molecular target: human NDPK-A (nucleoside diphosphate kinase A), full-length recombinant
Sequence (chain, as listed by the source): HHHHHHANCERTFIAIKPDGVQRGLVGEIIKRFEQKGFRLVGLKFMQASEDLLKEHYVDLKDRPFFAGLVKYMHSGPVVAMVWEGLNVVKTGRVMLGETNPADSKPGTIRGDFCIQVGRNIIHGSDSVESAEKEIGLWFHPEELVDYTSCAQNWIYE

B1: human ADK (adenosine kinase), recombinant (protein)
chain: AAAEEEPKPKKLKVEAPQALRENILFGMGNPLLDISAVVDKDFLDKYSLKPNDQILAEDKHKELFDELVKKFKVEYHAGGSTQNSIKVAQWMIQQPHKAATFFGCIGIDKFGEILKRKAAEAHVDAHYYEQNEQPTGTCAACITGDNRSLIANLAAANCYKKEKHLDLEKNWMLVEKARVCYIAGFFLTVSPESVLKVAHHASENNRIFTLNLSAPFISQFYKESLMKVMPYVDILFGNETEAATFAREQGFETKDIKEIAKKTQALPKMNSKRQRIVIFTQGRDDTIMATESEVTAFAVLDQDQKEIIDTNGAGDAFVGGFLSQLVSDKPLTECIRAGHYAASIIIRRTGCTFPEKPDFH
activity of recombinant NDPK to generate ADP (ADP-Glo): addition of recombinant ADK significantly reduced the activity of NDPK to generate ADP
